From publication PMC8546710

Tests used:
[1] = target: CDV M protein (strain A75/17) mutant G245P (canine distemper virus, strain A75/17); test: co-IP; FLAG-M and 2×HA-longlinker-M, both bearing the same mutation, cotransfected in HEK-293T; lysed 24 h posttransfection in 50 mM Tris pH 7.4, 150 mM NaCl, 0.05% NP-40, 5% glycerol, 20 mM sodium molybdate; IP with anti-HA (16B12) and Dynabeads Protein G at 4°C; blot with polyclonal anti-CDV M; coIP efficiency index = (coIP/IP)/(ratio in total lysates), normalised to wt = 100%
[2] = target: CDV M protein (strain A75/17) mutant K238E (canine distemper virus, strain A75/17); test: as above
[3] = target: CDV M protein (strain A75/17) mutant A94S; test: coimmunoprecipitation (coIP efficiency index, Western blot band quantification); conditions: 2xHA-M and FLAG-M co-expressed in HEK-293T cells; IP anti-HA, IB anti-M; parent: est. 100; read off a plot
[4] = target: CDV M protein (strain A75/17) mutant D235N; test: as above; conditions: 2xHA-M and FLAG-M co-expressed in HEK-293T cells; IP anti-HA, IB anti-M; parent: est. 100; read off a plot
[5] = target: CDV M protein (strain A75/17) mutant E89D; test: as above; conditions: 2xHA-M and FLAG-M co-expressed in HEK-293T cells; IP anti-HA, IB anti-M; parent: est. 100; read off a plot
[6] = target: CDV M protein (strain A75/17) mutant E89G; test: as above; conditions: 2xHA-M and FLAG-M co-expressed in HEK-293T cells; IP anti-HA, IB anti-M; parent: est. 100; read off a plot
[7] = target: CDV M protein (strain A75/17) mutant E89H; test: as above; conditions: 2xHA-M and FLAG-M co-expressed in HEK-293T cells; IP anti-HA, IB anti-M; parent: est. 100; read off a plot
[8] = target: CDV M protein (strain A75/17) mutant E89K; test: as above; conditions: 2xHA-M and FLAG-M co-expressed in HEK-293T cells; IP anti-HA, IB anti-M; parent: est. 100; read off a plot
[9] = target: CDV M protein (strain A75/17) mutant E89R; test: as above; conditions: 2xHA-M and FLAG-M co-expressed in HEK-293T cells; IP anti-HA, IB anti-M; parent: est. 100; read off a plot
[10] = target: CDV M protein (strain A75/17) mutant E89Y; test: as above; conditions: 2xHA-M and FLAG-M co-expressed in HEK-293T cells; IP anti-HA, IB anti-M; parent: est. 100; read off a plot
[11] = target: CDV M protein (strain A75/17) mutant E242Q; test: as above; conditions: 2xHA-M and FLAG-M co-expressed in HEK-293T cells; IP anti-HA, IB anti-M; parent: est. 100; read off a plot
[12] = target: CDV M protein (strain A75/17) mutant G245P; test: as above; conditions: 2xHA-M and FLAG-M co-expressed in HEK-293T cells; IP anti-HA, IB anti-M; parent: est. 100; read off a plot
[13] = target: CDV M protein (strain A75/17) mutant K92E; test: as above; conditions: 2xHA-M and FLAG-M co-expressed in HEK-293T cells; IP anti-HA, IB anti-M; parent: est. 100; read off a plot
[14] = target: CDV M protein (strain A75/17) mutant K238E; test: as above; conditions: 2xHA-M and FLAG-M co-expressed in HEK-293T cells; IP anti-HA, IB anti-M; bar marked 'Poorly expressed'; parent: est. 100; read off a plot
[15] = target: CDV M protein (strain A75/17) mutant K240Q; test: as above; conditions: 2xHA-M and FLAG-M co-expressed in HEK-293T cells; IP anti-HA, IB anti-M; parent: est. 100; read off a plot
[16] = target: CDV M protein (strain A75/17) mutant K243E; test: as above; conditions: 2xHA-M and FLAG-M co-expressed in HEK-293T cells; IP anti-HA, IB anti-M; parent: est. 100; read off a plot
[17] = target: CDV M protein (strain A75/17) mutant L96N; test: as above; conditions: 2xHA-M and FLAG-M co-expressed in HEK-293T cells; IP anti-HA, IB anti-M; parent: est. 100; read off a plot
[18] = target: CDV M protein (strain A75/17) mutant L239D; test: as above; conditions: 2xHA-M and FLAG-M co-expressed in HEK-293T cells; IP anti-HA, IB anti-M; parent: est. 100; read off a plot
[19] = target: CDV M protein (strain A75/17) mutant P87A; test: as above; conditions: 2xHA-M and FLAG-M co-expressed in HEK-293T cells; IP anti-HA, IB anti-M; parent: est. 100; read off a plot
[20] = target: CDV M protein (strain A75/17) mutant Y236F; test: as above; conditions: 2xHA-M and FLAG-M co-expressed in HEK-293T cells; IP anti-HA, IB anti-M; parent: est. 100; read off a plot

Work on “CDV M protein (strain A75/17) mutant G245P (natural protein)” yielded a coIP efficiency index (normalised to wt) [1] of 3.8%.

Substance “CDV M protein (strain A75/17) mutant K238E (natural protein)” has a coIP efficiency index (normalised to wt) [2] of 9.7%.

“canine distemper virus (CDV) matrix (M) protein, strain A75/17, wild type A94S” gave a percent of parent (percent to wt) [3] of 98.

In the case of “canine distemper virus (CDV) matrix (M) protein, strain A75/17, wild type D235N”, the percent of parent (percent to wt) [4] is reported as 120.

In the case of “canine distemper virus (CDV) matrix (M) protein, strain A75/17, wild type E89D”, the percent of parent (percent to wt) [5] is reported as 80.

Substance “canine distemper virus (CDV) matrix (M) protein, strain A75/17, wild type E89G” has a percent of parent (percent to wt) [6] of 47.

“canine distemper virus (CDV) matrix (M) protein, strain A75/17, wild type E89H” was tested, and the percent of parent (percent to wt) [7] was 98.

In the case of “canine distemper virus (CDV) matrix (M) protein, strain A75/17, wild type E89K”, the percent of parent (percent to wt) [8] is reported as 83.

Work on “canine distemper virus (CDV) matrix (M) protein, strain A75/17, wild type E89R” yielded a percent of parent (percent to wt) [9] of 77.

In the case of “canine distemper virus (CDV) matrix (M) protein, strain A75/17, wild type E89Y”, the percent of parent (percent to wt) [10] is reported as 91.

Work on “canine distemper virus (CDV) matrix (M) protein, strain A75/17, wild type E242Q” yielded a percent of parent (percent to wt) [11] of 150.

“canine distemper virus (CDV) matrix (M) protein, strain A75/17, wild type G245P” gave a percent of parent (percent to wt) [12] of 4.

Substance “canine distemper virus (CDV) matrix (M) protein, strain A75/17, wild type K92E” has a percent of parent (percent to wt) [13] of 87.

With “canine distemper virus (CDV) matrix (M) protein, strain A75/17, wild type K238E” the percent of parent (percent to wt) [14] was 9.

For “canine distemper virus (CDV) matrix (M) protein, strain A75/17, wild type K240Q”, the percent of parent (percent to wt) [15] was 100.

“canine distemper virus (CDV) matrix (M) protein, strain A75/17, wild type K243E” showed a percent of parent (percent to wt) [16] of 97.

With “canine distemper virus (CDV) matrix (M) protein, strain A75/17, wild type L96N” the percent of parent (percent to wt) [17] was 96.

“canine distemper virus (CDV) matrix (M) protein, strain A75/17, wild type L239D” gave a percent of parent (percent to wt) [18] of 110.

Work on “canine distemper virus (CDV) matrix (M) protein, strain A75/17, wild type P87A” yielded a percent of parent (percent to wt) [19] of 120.

In the case of “canine distemper virus (CDV) matrix (M) protein, strain A75/17, wild type Y236F”, the percent of parent (percent to wt) [20] is reported as 84.
